According to IntAct's records for PubMed 23940353:

B1: ADP-ribosylation factor 6 (Homo sapiens), P62330 (parent)
chain: MGKVLSKIFGNKEMRILMLGLDAAGKTTILYKLKLGQSVTTIPTVGFNVETVTYKNVKFNVWDVGGQDKIRPLWRHYYTGTQGLIFVVDCADRDRIDEARQELHRIINDREMRDAIILIFANKQDLPDAMKPHEIQEKLGLTRIRDRNWYVQPSCATSGDGLYEGLTWLTSNYKS
B2: Cytohesin-3 (Homo sapiens), O43739-2 (parent)
chain: MDEDGGGEGGGVPEDLSLEEREELLDIRRRKKELIDDIERLKYEIAEVMTEIDNLTSVEESKTTQRNKQIAMGRKKFNMDPKKGIQFLIENDLLQSSPEDVAQFLYKGEGLNKTVIGDYLGERDEFNIKVLQAFVELHEFADLNLVQALRQFLWSFRLPGEAQKIDRMMEAFASRYCLCNPGVFQSTDTCYVLSFAIIMLNTSLHNHNVRDKPTAERFIAMNRGINEGGDLPEELLRNLYESIKNEPFKIPEDDGNDLTHTFFNPDREGWLLKLGGRVKTWKRRWFILTDNCLYYFEYTTDKEPRGIIPLENLSIREVEDPRKPNCFELYNPSHKGQVIKACKTEADGRVVEGNHVVYRISAPSPEEKEEWMKSIKASISRDPFYDMLATRKRRIANKK

Experiments:
CYTH3, O43739-2 = variants of: B1; conditions: with CYTH3, O43739-2
CYTH1, Q15438-2 = variants of: B1; conditions: with CYTH1, Q15438-2
CYTH2, Q99418-2 = variants of: B1; conditions: with CYTH2, Q99418-2
arf6_human ARF6, P62330 = variants of: B2; conditions: with arf6_human ARF6, P62330

CYTH1, Q15438-2, sequence (Q15438 other isoform, or with tags, fused parts or gaps): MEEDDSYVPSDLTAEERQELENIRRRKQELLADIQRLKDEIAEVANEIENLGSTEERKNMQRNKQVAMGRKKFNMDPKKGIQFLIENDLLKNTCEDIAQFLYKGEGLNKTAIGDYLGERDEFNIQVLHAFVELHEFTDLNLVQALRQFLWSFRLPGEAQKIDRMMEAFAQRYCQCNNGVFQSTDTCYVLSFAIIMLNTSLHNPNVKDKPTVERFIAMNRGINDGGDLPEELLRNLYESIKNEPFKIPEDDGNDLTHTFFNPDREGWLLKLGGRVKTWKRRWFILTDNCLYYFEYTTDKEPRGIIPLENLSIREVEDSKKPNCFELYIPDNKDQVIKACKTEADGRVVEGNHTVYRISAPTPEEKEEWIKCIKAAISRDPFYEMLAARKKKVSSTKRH
CYTH2, Q99418-2, sequence (Q99418 other isoform, or with tags, fused parts or gaps): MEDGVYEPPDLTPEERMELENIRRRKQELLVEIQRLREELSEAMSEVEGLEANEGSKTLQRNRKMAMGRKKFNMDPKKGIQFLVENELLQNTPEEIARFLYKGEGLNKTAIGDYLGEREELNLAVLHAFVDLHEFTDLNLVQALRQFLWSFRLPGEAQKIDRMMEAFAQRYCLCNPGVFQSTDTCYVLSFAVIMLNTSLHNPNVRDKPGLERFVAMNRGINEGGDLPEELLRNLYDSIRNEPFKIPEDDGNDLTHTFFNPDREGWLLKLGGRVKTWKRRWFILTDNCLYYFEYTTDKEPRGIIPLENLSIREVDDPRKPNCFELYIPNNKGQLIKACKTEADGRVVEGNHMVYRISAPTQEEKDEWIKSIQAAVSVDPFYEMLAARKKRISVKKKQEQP

Variant	effect of a mutation on the interaction (CYTH3, O43739-2)	effect of a mutation on the interaction (CYTH1, Q15438-2)	effect of a mutation on the interaction (CYTH2, Q99418-2)	effect of a mutation on the interaction (arf6_human ARF6, P62330)
Q67L	with no effect	with no effect	with no effect	
L388A				decreasing interaction strength
K392A				decreasing interaction strength
